Reference: patent US20250136708A1 (YEDA RESEARCH AND DEVELOPMENT, published 2025)

Columns and labels:
[1] = target: T1, mouse ATP6V1B2 on the surface of senescent mouse lung fibroblasts (CCL-206) (mouse, UniProt P62814 1-511); test: FACS, non-permeabilized senescent CCL-206 cells, antibody at 10 ug/ml
T1 construct: whole, on cells; Endogenous protein on mouse cells
Description: Surface binding was examined in non-permeabilized cells using FACS. FIG. 4A: antibody 2G05.
(§1) Control, growing IMR-90 or CCL-206 cells were seeded 24h prior to testing day. On testing day, the medium was aspirated, and cells were gently detached using warm TrypLE Express solution (Thermo Fisher Scientific) followed by the addition of cold FACS buffer (PBS/5% FBS). ATP6V1B2 antibodies were added to the tubes containing the cells and the tubes were incubated for 60-70 minutes at 4C and centrifuged. Antibodies 2G05, 2E11 and 4G06 were tested at 10 ug/ml. Commercial antibodies-LS-B13421 (LS Bio), ab200839 (Abcam), and SC-55544 (Santa Cruz) were used at 20 ug/ml. Two hundred fifty ul of secondary antibody (anti mouse Alexa 647, Jackson 115-605-146 diluted in FACS buffer 1:300) were added and the tubes were incubated for 40 minutes at 4 C. Following incubation, 600 ul FACS buffer supplemented with DAPI (diluted 1:20,000) were added to each tube and the tubes were centrifuged. Cell pellets were resuspended in 200 ul FACS buffer. The samples were analyzed using GUAVA Flow Cytometry analyzer. Data was analyzed using the FCSalyzer 0.9.18-alpha software. Duplicates and dead cells (DAPI positive cells) were excluded.

[2] = target: T2, human ATP6V1B2 on the surface of senescent human cells (IMR-90 lung fibroblasts, IPF lung fibroblasts, A549 … (human, UniProt P21281 1-511)); test: FACS, non-permeabilized senescent IMR-90 cells, antibody at 10 ug/ml
T2 construct: whole, on cells; Endogenous protein on cells; also called surface ATP6V1B2; surface protein expressed in senescent human lung fibroblasts
T2 sequence (P21281 whole entry): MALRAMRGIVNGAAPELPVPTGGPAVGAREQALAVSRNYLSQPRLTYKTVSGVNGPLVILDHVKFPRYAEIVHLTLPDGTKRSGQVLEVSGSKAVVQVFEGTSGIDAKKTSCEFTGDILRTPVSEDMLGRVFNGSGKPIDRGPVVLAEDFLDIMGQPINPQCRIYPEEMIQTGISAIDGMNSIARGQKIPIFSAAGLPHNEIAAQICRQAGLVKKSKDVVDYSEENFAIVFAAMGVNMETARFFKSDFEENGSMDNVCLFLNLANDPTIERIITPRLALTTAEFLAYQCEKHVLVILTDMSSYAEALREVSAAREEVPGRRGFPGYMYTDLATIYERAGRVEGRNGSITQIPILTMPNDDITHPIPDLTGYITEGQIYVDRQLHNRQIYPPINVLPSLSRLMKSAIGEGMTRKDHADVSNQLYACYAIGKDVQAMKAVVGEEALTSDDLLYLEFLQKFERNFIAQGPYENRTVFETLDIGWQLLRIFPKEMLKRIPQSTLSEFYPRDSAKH
Description: as §1

T1 sequence (P62814 whole entry): as the sequence (P21281 whole entry) above, with A25M, V26A, R460K, A464T, F474Y counted along it

B1: anti-ATP6V1B2 antibody 2E11 (antibody, V domains shown)
VH: EVQLQQSGAELVKPGASAKMSCRAPGYTFTSYWITWVKQRPGQGLEWIGDIYPGSGSTNYNEKFKTKATLTVDTSSSTAYMQLSSLTSEDSAVYYCAELGTFDYWGQGTTLTVST
VL: DVVVTQTPLSLPVSLGDQASISCRSSQSLVHSNGNTYLHWYLQKPGQSPKLLIYKVSNRFSGVPDRFSGSGSGTDFTLKISRVEAEDLGVYFCSQSTHVPYTFGGGTKLEIK
notes: detection was with an anti-mouse secondary antibody
- binding result [1]: binds
- binding result [2]: binds
